What was measured:
Type in all cases: biochemical, porcine
TRH-DE [1] = biological target: T1, TRH-DE (Sus scrofa, UniProt A0A287AP33); assay: HPLC assay of peptide hydrolysis by TRH-DE (Glp production)
T1 construct: The inventor purified TRH-DE from porcine brain according to purification procedures previously published by Dr. K. Bauer; from tissue; host or cells: porcine brain (TRH-DE); bovine kidney (DPP-IV, gift from Dr. C. H. Williams)
Summary of the method: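 Porcine brain TRH-DE incubated with 1 mM peptide in 20 mM potassium phosphate, pH 7.5, 37 °C: screen with 0.8 μg enzyme for 18 h; rate microassays with 0.8-3.2 μg enzyme for 5 min to 18 h, in triplicate. Reactions stopped with TFA; Glp quantified by C-18 reverse-phase HPLC, UV 206 nm.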

TRH-DE [2] = biological target: T1, TRH-DE; assay: discontinuous fluorometric TRH-DE assay with TRHAMC as substrate; conditions: measured indirectly, peptide treated as competitive inhibitor of TRHAMC hydrolysis; non-linear regression; mean±S.D.
Description: (§1) The inventor purified TRH-DE from porcine brain according to purification procedures previously published by Dr. K. Bauer, (Max-Planck-Institut, Hannover, Germany) (1). TRH-DE was purified almost 20,000 fold. […] Dipeptidyl peptidase IV (DPP-IV) (EC 3.4.14.5), purified from bovine kidney (7.7 mg ml^−1, specific activity of 17.5 U mg^−1 with Gly-ProAMC as substrate), was obtained as a gilt from Dr. C. H. Williams (Queen's University Belfast, U.K). (DPP-IV was used as the coupling enzyme used in the fluorometric assays).
(§2) One unit (U) of enzyme activity was defined as that amount catalysing the formation of one μmol of product in one minute under the standard conditions employed. […]
(§3) Determination of inhibitor constants for selected TRH-DE substrates—The HPLC assay lacked sufficient sensitivity for determining kinetic constants. […] This assay employs TRHAMC as the substrate and depends on the measurement of the fluorescence of 7-amino-4 methyl coumarin (AMC) produced as follows:
We have shown that the amount of AMC formed under these conditions is a quantitative measure of TRHAMC cleavage (23). Initial rates for the hydrolysis of TRHAMC by TRH-DE were determined in triplicate at five different substrate concentrations both in the absence and presence of at least three concentrations of peptide. […]

[3] = substrate: Cc1cc(=O)oc2cc(NC(=O)[C@@H]3CCCN3C(=O)[C@H](Cc3c[nH]cn3)NC(=O)[C@@H]3CCC(=O)N3)ccc12; assay: as above; conditions: other: Michaelis constant of TRHAMC measured directly, discontinuous assay; pH 7.5; 37.0 °C
Description: as §1
(§4) One unit (U) of enzyme activity was defined as that amount catalysing the formation of one μmol of product in one minute under the standard conditions employed. All incubations in the assays described below were carried out in 20 mM potassium phosphate buffer, pH 7.5, at 37° C.
as §3
(§5) We have shown that the amount of AMC formed under these conditions is a quantitative measure of TRHAMC cleavage (23). Initial rates for the hydrolysis of TRHAMC by TRH-DE were determined in triplicate at five different substrate concentrations both in the absence and presence of at least three concentrations of peptide. Ki values were obtained by non-linear regression analysis of the data collected. Determined in this way (i.e. by treating the peptide substrates as inhibitors of TRHAMC hydrolysis), these Ki values correspond to the Michaelis constants for those library peptides hydrolysed by TRH-DE (32).

[4] = substrate: NC(=O)[C@@H]1CCCN1C(=O)[C@H](Cc1ccc(O)cc1)NC(=O)[C@@H]1CCC(=O)N1; assay: as above; conditions: other: measured indirectly, peptide treated as competitive inhibitor of TRHAMC hydrolysis; non-linear regression; mean±S.D.; pH 7.5; 37.0 °C
Description: as §1, §4, §3, §5

[5] = substrate: NC(=O)[C@@H]1CCCN1C(=O)[C@H](Cc1ccccc1)NC(=O)[C@@H]1CCC(=O)N1; assay: as above; conditions: other: measured indirectly, peptide treated as competitive inhibitor of TRHAMC hydrolysis; non-linear regression; mean±S.D.; pH 7.5; 37.0 °C
Description: as §1, §4, §3, §5

[6] = substrate: Cc1cc(=O)oc2cc(NC(=O)[C@@H]3CCCN3C(=O)[C@H](Cc3c[nH]cn3)NC(=O)[C@@H]3CCC(=O)N3)ccc12; assay: continuous coupled fluorometric TRH-DE assay (TRHAMC substrate, DPP-IV coupling enzyme); conditions: other: Michaelis constant of TRHAMC, non-linear regression, pH 7.5, 37.0 °C
Description: as §1, §2
The reaction was monitored continuously by measuring the increase in AMC fluorescence. A linear progress curve with no discernible lag period was observed when the reaction was monitored over a period of 10 minutes. […]
In a preliminary experiment, the peptides were screened for their ability to inhibit TRH-DE activity. The initial rate of TRHAMC hydrolysis by TRH-DE was measured by incubating 5 μM TRHAMC with 1.23 μg DPP-IV and 0.32 μg TRH-DE, both in the absence and presence of each library peptide (1 mM final concentration) under standard assay conditions (23). […]
Fluorescence measurements were made using a Perkin Elmer LS 50B Luminescence Spectrometer fitted with a thernostated cell holder. […]

Row | Vmax (TRH-DE [1]; estimated from HPLC rates of hydrolysis using Vmax=vo{(Km+[S])/[S]}) | Rate of hydrolysis (TRH-DE [1]; peptide 1 mM, 37° C., Glp production by HPLC, mean±S.D.) | Km (TRH-DE [2]) [µM] | Molecule | Km [3] [µM] | Vmax [3] [µmol/min/mg] | Vmax/Km [3] [µL/min/mg] | Km [4] | Vmax [4] [µmol/min/mg] | Vmax/Km [4] [µL/min/mg] | Km [5] | Vmax [5] [µmol/min/mg] | Vmax/Km [5] [µL/min/mg] | Km [6] [µM]
1 | 2.19 ± 0.16 (6) U mg^−1 | 2.12 ± 0.16 (6) U mg^−1 | 34 ± 6 | Glp-Thi-ProNH2 | – | – | – | – | – | – | – | – | – | –
2 | – | – | – | TRH-DE (Sus scrofa) (protein, The inventor purified TRH-DE from porcine brain according to purification procedures previously published by Dr. K. Bauer; from tissue; host or cells: porcine brain (TRH-DE); bovine kidney (DPP-IV, gift from Dr. C. H. Williams)) MALDGERGEQEEEKKKKKKKKKRKKKKEEEGAKKSSSPFVATMGENDAALRAGGRGLSDPWADSVGVRPRTTERHITVHKRLVLAFAVSIVALLAVTMLAVLLSLRFDECGASIPPGADGGPAGFPARGGNESLPGSSRRDHHAGGDSSQPGAGREDTPETPSAQPPSEEEQEQWQPWTQLRLSGHLKPLHYNLMLTAFMENFTFSGEVNVEIACRNATRYVVLHASRVAVEKVQVAEDRVAGAVPVAGFFLYPQTQVLVVVLNRTLDAQRNYNLKIIYNALIENELLGFFRSSYVLHGERRFLGVTQFSPTHARKAFPCFDEPIYKATFKISIKHQATYLSLSNMPVETSVFEEDGWVTDHFSQTPLMSTYYLAWAICNFTYRETTTKSGVVVRLYARPDAIRRGSGDYALHITKRLIEFYEDYFKVPYSLPKLDLLAVPKHPYAAMENWGLSIFVEQRILLDPSVSSISYLLDVTMVIVHEICHQWFGDLVTPVWWEDVWLKEGFAHYFEFVGTDYLYPGWNMEKQRFLTDVLHEVMLLDGLASSHPVSQEVLRATDIDRVFDWIAYKKGAALIRMLANFMGHSVFQRGLQDYLTIHKYGNAARNDLWNTLSEALKRNGKYVNIQEVMDQWTLQMGYPVITIFGNTTAENRIIITQQHFIYDISAKAKPHELQNSSYLWQIPLTIVVGNRSHVSSEAIIWVSNKTEHHRITSLNKGSWLLGNINQTGYFRVNYDLRNWRLLIDQLIRNHEVLSVSNRAGLIDDAFSLARAGYLPQNIPLEIIRYLSEEKDFLPWHAASRALYPLDKLLDRMEKYNVFNEYILKQVATTYIKLGWPKNNFNGSLVQASYQHEELRREVIMLACSFGNKHCHQQASTLISDWISSNRNRIPLNVRDIVYCTGVSLLDEDVWEFIWMKFHSTTAISEKKILLEALTCSDDRNLLNRLLNLSLNSEVVLDQDAIDVIIHVARNPHGRDLAWKFFRDKWKILNTRYGEALFMNSKLISGVTEFLNTEGELKELKNFMKSYDGVAAASFSRAVETVEANVRWKMLYQDELFQWLGKALRH | 3.1 ± 0.5 | 0.11 | 40000 | 15 ± 3 (4) μM | 0.67 | 50000 | 55 ± 8 (3) μM | 1.64 | 30000 | 3.5 ± 0.4
